From article PMC8673628
Values belong to the substance of their own block, whether it stands above or below them.

How the values were obtained:
[1] = molecular target: Thioredoxin reductase from Sphingomonas sp. PAMC 26621 (SpTR) (Sphingomonas sp. PAMC 26621)
[2] = molecular target: Thioredoxin reductase from Sphingomonas sp. PAMC 26621 (SpTR) (Sphingomonas sp. PAMC 26621); test: SEC; Superdex 200 10/300 GL gel filtration in buffer D (50 mM sodium phosphate, pH 7.2, 100 mM NaCl); molecular weight against a protein standard mix

Substance: SpTrx F26A mutant (natural protein)
Km of SpTR for SpTrx F26A as substrate, 4°C (DTNB reduction at 412 nm, 50 nM SpTR, 0.1-10 μM Trx) [1]: 6.8 µM | Km of SpTR for SpTrx F26A as substrate, 30°C (DTNB reduction at 412 nm, 50 nM SpTR, 0.1-10 μM Trx) [1]: 6.41 µM

Substance: SpTrx F26W mutant (natural protein)
Km of SpTR for SpTrx F26W as substrate, 4°C (DTNB reduction at 412 nm, 50 nM SpTR, 0.1-10 μM Trx) [1]: 1.24 µM | Km of SpTR for SpTrx F26W as substrate, 30°C (DTNB reduction at 412 nm, 50 nM SpTR, 0.1-10 μM Trx) [1]: 0.66 µM

Substance: Thioredoxin reductase from Sphingomonas sp. PAMC 26621 (SpTR) (enzyme)
stoichiometry N [2]: 2

Second part, the substance after the results:

Km of SpTR for SpTrx F26Y as substrate, 4°C (DTNB reduction at 412 nm, 50 nM SpTR, 0.1-10 μM Trx) [1]: 1.17 µM | Km of SpTR for SpTrx F26Y as substrate, 30°C (DTNB reduction at 412 nm, 50 nM SpTR, 0.1-10 μM Trx) [1]: 0.6 µM
Substance: SpTrx F26Y mutant (natural protein)

Km of SpTR for SpTrx as substrate, 4°C (DTNB reduction at 412 nm, 50 nM SpTR, 0.1-10 μM Trx) [1]: 1.1 µM | Km of SpTR for SpTrx as substrate, 30°C (DTNB reduction at 412 nm, 50 nM SpTR, 0.1-10 μM Trx) [1]: 0.63 µM
Substance: Thioredoxin from the psychrophilic Arctic bacterium Sphingomonas sp. PAMC 26621 (SpTrx), wild type (natural protein)
